# Results from the supplement of paper PMC9112550, “Optimization of the antimicrobial peptide Bac7 by deep mutational scanning” (BMC Biology, 2022).
# System: Escherichia coli TOP10
# Assay: shrunken log2 fold change of peptide-encoding DNA abundance (4.5 h post-induction vs induction); higher = less antimicrobial activity (less host growth inhibition)
# Conditions: time post-induction: 4.5 h; library: site-saturation at positions 5, 18, 19, 20
# 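Also: peptides expressed intracellularly from a pBAD plasmid library in pooled LB shake-flask culture, induced with 0.3% L-arabinose, DNA abundance read by NGS, three biological replicates, DESeq2 with apeglm shrinkage.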
row,Sequence,shrunken log2 fold change
1,RRIRRRPPRLPRPRPRPAFCPRP,0.404
2,RRIRWRPPRLPRPRPRPNTYPRP,0.0764
3,RRIRWRPPRLPRPRPRPKYAPRP,-0.0417
4,RRIRQRPPRLPRPRPRPSRFPRP,3.97
5,RRIRNRPPRLPRPRPRPGESPRP,-0.111
6,RRIRMRPPRLPRPRPRPYGWPRP,0.0956
7,RRIRNRPPRLPRPRPRPLHMPRP,-0.372
8,RRIRNRPPRLPRPRPRPDLHPRP,1.8
9,RRIRSRPPRLPRPRPRPLAFPRP,-0.0837
10,RRIRCRPPRLPRPRPRPGGIPRP,-0.329
11,RRIRSRPPRLPRPRPRPETHPRP,0.0531
12,RRIRHRPPRLPRPRPRPFSEPRP,-0.591
13,RRIRTRPPRLPRPRPRPQNRPRP,-0.199
14,RRIRVRPPRLPRPRPRPYWVPRP,-0.0928
15,RRIRCRPPRLPRPRPRPDGDPRP,0.0934
16,RRIRRRPPRLPRPRPRPIHMPRP,-0.206
17,RRIRFRPPRLPRPRPRPWALPRP,0.00634
18,RRIRHRPPRLPRPRPRPTHLPRP,-0.102
19,RRIRVRPPRLPRPRPRPFWDPRP,-0.0687
20,RRIRTRPPRLPRPRPRPFPCPRP,-0.197
21,RRIRERPPRLPRPRPRPTWWPRP,0.412
22,RRIRYRPPRLPRPRPRPMKVPRP,0.0135

row,Sequence,shrunken log2 fold change
1,RRIRMRPPRLPRPRPRPCEFPRP,0.00328
2,RRIRYRPPRLPRPRPRPNPTPRP,0.0161
3,RRIRWRPPRLPRPRPRPQAWPRP,0.23
4,RRIRPRPPRLPRPRPRPWCIPRP,-0.519
5,RRIRKRPPRLPRPRPRPNYEPRP,-0.0635
6,RRIRQRPPRLPRPRPRPATRPRP,0.616
7,RRIRQRPPRLPRPRPRPNWRPRP,0.107
8,RRIRGRPPRLPRPRPRPFYTPRP,-0.173
9,RRIRIRPPRLPRPRPRPSRDPRP,-0.0607
10,RRIRTRPPRLPRPRPRPDLMPRP,-0.121
11,RRIRCRPPRLPRPRPRPWYWPRP,-0.286
12,RRIRSRPPRLPRPRPRPTNYPRP,-0.44
13,RRIRRRPPRLPRPRPRPGNIPRP,-0.0618
14,RRIRSRPPRLPRPRPRPRLQPRP,0.307
15,RRIRKRPPRLPRPRPRPIPLPRP,0.0106
16,RRIRQRPPRLPRPRPRPQIYPRP,0.0392
17,RRIRTRPPRLPRPRPRPELKPRP,0.432
18,RRIRARPPRLPRPRPRPLHTPRP,0.0174
19,RRIRLRPPRLPRPRPRPYVWPRP,-0.872
20,RRIRLRPPRLPRPRPRPFYFPRP,-0.432
21,RRIRIRPPRLPRPRPRPLMTPRP,-0.233
22,RRIRKRPPRLPRPRPRPVIQPRP,-0.0501

row,Sequence,shrunken log2 fold change
1,RRIRFRPPRLPRPRPRPQYNPRP,-1.05
2,RRIRWRPPRLPRPRPRPFPEPRP,-0.145
3,RRIRNRPPRLPRPRPRPKPMPRP,0.375
4,RRIRWRPPRLPRPRPRPNATPRP,0.736
5,RRIRCRPPRLPRPRPRPETRPRP,0.209
6,RRIRCRPPRLPRPRPRPEKRPRP,-0.123
7,RRIRGRPPRLPRPRPRPAGWPRP,1.15
8,RRIRFRPPRLPRPRPRPSPEPRP,0.24
9,RRIRPRPPRLPRPRPRPTNGPRP,0.191
10,RRIRARPPRLPRPRPRPHNEPRP,-0.258
11,RRIRVRPPRLPRPRPRPSWVPRP,-0.32
12,RRIRVRPPRLPRPRPRPFQTPRP,-0.214
13,RRIRKRPPRLPRPRPRPRHSPRP,0.152
14,RRIRRRPPRLPRPRPRPYSSPRP,-0.0612
15,RRIRIRPPRLPRPRPRPVCHPRP,-0.179
16,RRIRSRPPRLPRPRPRPHVLPRP,-0.54
17,RRIRTRPPRLPRPRPRPSKDPRP,-0.61
18,RRIRTRPPRLPRPRPRPVFAPRP,0.214
19,RRIRERPPRLPRPRPRPLKSPRP,-0.169
20,RRIRPRPPRLPRPRPRPVYQPRP,-0.0913
21,RRIRGRPPRLPRPRPRPLEMPRP,0.998
22,RRIRYRPPRLPRPRPRPQIDPRP,0.0753

row,Sequence,shrunken log2 fold change
1,RRIRNRPPRLPRPRPRPGADPRP,0.0958
2,RRIRGRPPRLPRPRPRPGRVPRP,0.554
3,RRIRSRPPRLPRPRPRPLGYPRP,-0.351
4,RRIRARPPRLPRPRPRPWVGPRP,0.271
5,RRIRRRPPRLPRPRPRPLWPPRP,0.484
6,RRIRIRPPRLPRPRPRPMRKPRP,0.0125
7,RRIRCRPPRLPRPRPRPVVEPRP,0.0964
8,RRIRCRPPRLPRPRPRPHDAPRP,-0.336
9,RRIRTRPPRLPRPRPRPIKGPRP,-0.331
10,RRIRERPPRLPRPRPRPLAPPRP,0.101
11,RRIRYRPPRLPRPRPRPIFMPRP,-0.269
12,RRIRPRPPRLPRPRPRPKTTPRP,0.507
13,RRIRDRPPRLPRPRPRPTVSPRP,0.853
14,RRIRIRPPRLPRPRPRPCLCPRP,2.05
15,RRIRRRPPRLPRPRPRPSHSPRP,-0.00512
16,RRIRKRPPRLPRPRPRPCAKPRP,0.54
17,RRIRNRPPRLPRPRPRPFNSPRP,-0.0382
18,RRIRARPPRLPRPRPRPDVGPRP,0.0285
19,RRIRWRPPRLPRPRPRPSKQPRP,0.143
20,RRIRERPPRLPRPRPRPCNRPRP,-0.0134
21,RRIRMRPPRLPRPRPRPKLPPRP,1.13
22,RRIRQRPPRLPRPRPRPLLWPRP,0.091

row,Sequence,shrunken log2 fold change
1,RRIRERPPRLPRPRPRPAEPPRP,-0.000777
2,RRIRDRPPRLPRPRPRPIWHPRP,0.144
3,RRIRKRPPRLPRPRPRPDIVPRP,1.54
4,RRIRWRPPRLPRPRPRPPTFPRP,-0.0697
5,RRIRMRPPRLPRPRPRPTGAPRP,1.25
6,RRIRIRPPRLPRPRPRPWKHPRP,-0.0111
7,RRIRVRPPRLPRPRPRPKNPPRP,-0.17
8,RRIRFRPPRLPRPRPRPFYWPRP,-0.217
9,RRIRCRPPRLPRPRPRPCHEPRP,-0.0566
10,RRIRHRPPRLPRPRPRPNRVPRP,-0.672
11,RRIRARPPRLPRPRPRPKVTPRP,0.0237
12,RRIRARPPRLPRPRPRPGTTPRP,0.143
13,RRIRYRPPRLPRPRPRPKIEPRP,-0.00459
14,RRIRMRPPRLPRPRPRPQKFPRP,-0.000921
15,RRIRGRPPRLPRPRPRPEDVPRP,0.157
16,RRIRQRPPRLPRPRPRPELWPRP,0.27
17,RRIRNRPPRLPRPRPRPAHWPRP,0.142
18,RRIRVRPPRLPRPRPRPKWEPRP,0.00343
19,RRIRRRPPRLPRPRPRPVTWPRP,0.182
20,RRIRYRPPRLPRPRPRPRHLPRP,-0.142
21,RRIRQRPPRLPRPRPRPVTSPRP,-0.0277
